Test results reported in patent US20230174672A1 (VEGA THERAPEUTICS, published 2023).

T1: human Protein S (human, UniProt P07225 42-676)
T1 construct: also called ProS; ProS1
T1 sequence: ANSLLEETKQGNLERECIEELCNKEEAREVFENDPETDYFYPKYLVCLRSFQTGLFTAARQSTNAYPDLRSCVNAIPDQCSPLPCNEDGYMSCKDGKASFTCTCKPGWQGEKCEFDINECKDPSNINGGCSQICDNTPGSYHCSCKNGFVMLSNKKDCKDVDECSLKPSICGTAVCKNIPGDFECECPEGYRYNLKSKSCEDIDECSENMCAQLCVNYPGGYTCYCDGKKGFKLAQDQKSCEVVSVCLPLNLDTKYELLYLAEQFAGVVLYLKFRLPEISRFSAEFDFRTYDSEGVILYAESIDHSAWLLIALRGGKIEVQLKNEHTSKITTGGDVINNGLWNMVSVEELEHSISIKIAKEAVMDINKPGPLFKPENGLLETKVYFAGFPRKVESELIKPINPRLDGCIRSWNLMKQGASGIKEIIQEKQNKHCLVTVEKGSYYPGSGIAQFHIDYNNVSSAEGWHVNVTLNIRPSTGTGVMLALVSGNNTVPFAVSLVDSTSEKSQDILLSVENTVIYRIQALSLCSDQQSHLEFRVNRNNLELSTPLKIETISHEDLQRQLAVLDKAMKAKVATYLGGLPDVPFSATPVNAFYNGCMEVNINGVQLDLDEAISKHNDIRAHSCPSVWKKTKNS

T2: Protein S-C4BP complex (human, UniProt P04003 49-597; P20851 18-252)
T2 construct: Bought C4BP preparation that contains Protein S precomplexed to human C4BP; also called ProS-C4BP Complex; C4BP-Protein S complex
T2 sequence 1: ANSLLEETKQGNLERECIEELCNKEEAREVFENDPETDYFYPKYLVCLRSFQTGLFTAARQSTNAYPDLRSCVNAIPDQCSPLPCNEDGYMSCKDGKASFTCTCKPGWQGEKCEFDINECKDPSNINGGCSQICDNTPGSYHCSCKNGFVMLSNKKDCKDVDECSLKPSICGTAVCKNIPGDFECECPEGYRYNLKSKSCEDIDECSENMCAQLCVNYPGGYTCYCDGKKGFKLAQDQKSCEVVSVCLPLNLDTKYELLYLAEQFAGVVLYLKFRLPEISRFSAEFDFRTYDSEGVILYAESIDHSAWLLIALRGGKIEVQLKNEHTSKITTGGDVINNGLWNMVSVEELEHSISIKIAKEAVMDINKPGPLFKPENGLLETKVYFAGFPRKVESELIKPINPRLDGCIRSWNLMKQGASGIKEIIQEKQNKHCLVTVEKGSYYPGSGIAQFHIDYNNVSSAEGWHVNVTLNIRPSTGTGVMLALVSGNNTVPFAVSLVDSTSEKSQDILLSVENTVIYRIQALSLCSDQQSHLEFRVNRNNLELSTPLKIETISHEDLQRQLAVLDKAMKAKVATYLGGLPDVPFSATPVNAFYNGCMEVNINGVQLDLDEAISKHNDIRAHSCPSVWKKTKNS
T2 sequence 2: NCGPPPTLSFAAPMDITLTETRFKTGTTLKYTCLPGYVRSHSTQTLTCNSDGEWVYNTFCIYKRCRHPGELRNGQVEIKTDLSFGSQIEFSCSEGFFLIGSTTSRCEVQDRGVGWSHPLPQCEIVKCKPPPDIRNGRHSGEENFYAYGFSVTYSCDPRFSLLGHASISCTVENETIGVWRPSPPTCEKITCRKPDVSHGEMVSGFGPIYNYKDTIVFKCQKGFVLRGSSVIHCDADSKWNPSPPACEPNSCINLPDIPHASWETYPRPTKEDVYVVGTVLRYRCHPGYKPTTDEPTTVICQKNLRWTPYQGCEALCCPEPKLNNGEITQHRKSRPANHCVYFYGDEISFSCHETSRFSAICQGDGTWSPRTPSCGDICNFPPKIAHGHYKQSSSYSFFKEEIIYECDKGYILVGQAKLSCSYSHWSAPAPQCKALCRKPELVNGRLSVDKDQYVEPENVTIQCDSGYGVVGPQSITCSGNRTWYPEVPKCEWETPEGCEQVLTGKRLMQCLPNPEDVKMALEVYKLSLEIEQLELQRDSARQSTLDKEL
T2 sequence 3: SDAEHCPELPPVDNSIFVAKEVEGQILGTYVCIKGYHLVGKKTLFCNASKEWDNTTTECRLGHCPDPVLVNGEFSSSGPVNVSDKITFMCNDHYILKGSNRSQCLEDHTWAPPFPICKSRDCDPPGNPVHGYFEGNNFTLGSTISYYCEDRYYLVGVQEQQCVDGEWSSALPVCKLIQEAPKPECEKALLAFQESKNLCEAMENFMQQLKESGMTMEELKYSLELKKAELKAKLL

T3: recombinant heavy chain Protein S (amino acids 42-296) (human, UniProt P07225 42-296)
T3 construct: Expressed and purified from HEK293 cells; No tags are stated; also called heavy chain of Protein S; Protein S heavy chain
T3 sequence: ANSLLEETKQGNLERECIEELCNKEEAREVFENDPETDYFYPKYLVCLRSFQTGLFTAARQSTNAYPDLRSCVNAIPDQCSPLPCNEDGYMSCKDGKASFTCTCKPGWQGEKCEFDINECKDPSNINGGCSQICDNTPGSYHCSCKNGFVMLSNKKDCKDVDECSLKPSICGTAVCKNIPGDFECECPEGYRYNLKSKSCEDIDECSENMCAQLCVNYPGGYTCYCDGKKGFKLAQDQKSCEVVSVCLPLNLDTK


Assays:
human Protein S [1] = target: T1, human Protein S; experiment: BLI, Octet; antibody on anti-human Fc capture probes, Protein S 7.81-500 nM, 4 mM calcium chloride
Protocol: (§1) Binding affinities of the Protein S antibodies provided herein were also further characterized using the Octet System (Sartorius). The binding of each antibody to both human and cynomolgus monkey (“cyno”) Protein S was determined. The human Fc antibodies were immobilized onto anti-human Fc capture probes by placing the probes into 10 µg/ml antibody solution in 10 mg/ml bovine serum albumin, 20 mM Tris pH 7.0, 150 mM NaCl, and 4 mM calcium chloride. […] Next, the probes were placed into buffer and the dissociation rates were measured.

[2] = target: T4, cynomolgus monkey Protein S (cynomolgus monkey); experiment: as above
T4 construct: also called cyno Protein S
Protocol: as §1

Protein S-C4BP complex = target: T2, Protein S-C4BP complex; experiment: Octet BLI, antibody captured on anti-human Fc probes; a dash indicates that the binding did not occur
Protocol: The Octet assay was used to determine the capability of the Protein S antibodies provided herein to bind to Protein S either alone, or when complexed to C4BP.
Using the Octet System (Sartorius), the binding of each antibody to both Protein S and Protein S in complex with C4BP was determined. It had previously been determined that the C4BP preparation from Complement Technologies contains Protein S precomplexed to human C4BP. […] Then the bound antibodies were placed into solutions containing either 75 µg/ml Protein S or 100 µg/ml C4BP (C4BP-Protein S complex).

[3] = target: T3, recombinant heavy chain Protein S …; experiment: ELISA, plate coated with recombinant Protein S heavy chain (aa 42-296), 1 µg/ml antibody, 1 mM calcium chloride
Protocol: (§2) Binding to the heavy chain of Protein S was determined using an ELISA based method. Briefly, high binding ELISA plates were coated with recombinant heavy chain Protein S expressed and purified from HEK293 cells. The “heavy chain” of Protein S represents a fragment of Protein S spanning amino acids 42-296. The coated plate was blocked with 1% casein solution. Then, buffer containing 1 µg/ml of antibody to be tested was applied to the well with buffer containing 1 mM calcium chloride.

human Protein S [4] = target: T1, human Protein S; experiment: ELISA, plate coated with human Protein S, 1 µg/ml antibody, 1 mM EDTA
Protocol: (§3) Calcium dependence of binding was determined using an ELISA based method. Briefly, high binding ELISA plates were coated with human Protein S. Then, buffer containing 1 µg/ml of antibody was applied to the well with either buffer containing 1 mM EDTA or 1 mM calcium chloride. If the level of binding of Protein S was reduced ([…] of the absorbance observed in the presence of calcium) when EDTA was added, it was concluded that the binding was calcium-dependent.

human Protein S [5] = target: T1, human Protein S; experiment: ELISA, plate coated with human Protein S, 1 µg/ml antibody, 1 mM calcium chloride
Protocol: as §3

[6] = target: T3, recombinant heavy chain Protein S …; experiment: ELISA on plate-coated recombinant Protein S heavy chain (aa 42-296), 1 mM calcium chloride
Protocol: as §2

human Protein S [7] = target: T1, human Protein S; experiment: SPR, Biacore X100; antibody captured on anti-human IgG (Fc), purified Protein S 2-128 nM as analyte, HBS-EP + 5 mM CaCl2, 1:1 model
Protocol: Binding interaction analysis was obtained by Surface Plasmon Resonance in a Biacore X100 instrument. The human anti-IgG (Fc) antibody was immobilized to the carboxymethylated dextran membrane on the sensor chip surface (CM5) via the free amine method for a contact time of 420 seconds. Human anti-IgG antibody at 25 µg/mL in 0.15 M NaCl was immobilized to 9,785 RU in 10 mM sodium acetate pH 5.0. Each tested monoclonal antibody was captured at a fixed concentration (0.25 µg/mL) with immobilized human anti-IgG antibody.
The following experimental conditions were used: purified Protein S was injected at concentrations: 2-128 nM, 1:2-fold dilution. Dilution and running buffer were as follows: Hbs-EP + 5 mM CaCl₂. Regeneration was obtained by 3 M MgCl₂. Binding constants (ka, kd, and KD) were determined using the Biacore X100 evaluation software, assuming a 1:1 interaction of Protein S and the tested monoclonal antibody under investigation.

Row | Binder | Kd (human Protein S [1]) [nM] | koff (human Protein S [1]) [s⁻¹] | kon (human Protein S [1]) [M⁻¹ s⁻¹] | Kd [2] [nM] | koff [2] [s⁻¹] | kon [2] [M⁻¹ s⁻¹] | binding result (Protein S-C4BP complex) | Binding to heavy chain (OD) [3] [OD] | Binding to Protein S in EDTA (OD) (human Protein S [4]) | Binding to Protein S in CaCl2 (OD) (human Protein S [5]) | binding result [6] | Kd (human Protein S [7]) [nM] | koff (human Protein S [7]) [s⁻¹] | kon (human Protein S [7]) [M⁻¹ s⁻¹]
1 | Antibody 26 (antibody, human IgG4, V domains shown, also called Protein S Antibody with Human Fc; Combination 16) VH: EVQVVESGGGLVQPGGSLRLSCAASGFTLNSFWMSWVRQAPGKGLEWVANIKEDGSEKYYVDSVKGRFTISRDNAKNSLYLQMNGLRAEDTALYYCARETDILTAYYSDYYSYYGMDVWGQGTTVTVSA VL: DIQMTQSPSSLSASVRDRVTINCRASQSIRSYLNWYQQKPGKAPKLLIYAASSLQGGVPSRFSGSGSGTDFTLTISSLQPEDFATYYCQQSYSTPRTFGQGTKVEIK | 0.466 | 4.58e-05 | 98500 | 0.349 | 3.15e-05 | 90300 | no binding (tested: 100 µg/ml C4BP (C4BP-Protein S complex)) | – | – | – | – | – | – | –
2 | Antibody 32 (antibody, V domains shown, Human variable region with a rat Fc domain; also called Protein S Antibody with Rat Fc; parental rat antibody of Antibody 26) VH: EVQVVESGGGLVQPGGSLRLSCAASGFTLNSFWMSWVRQAPGKGLEWVANIKEDGSEKYYVDSVKGRFTISRDNAKNSLYLQMNGLRAEDTALYYCARETDILTAYYSDYYSYYGMDVWGQGTTVTVSA VL: DIQMTQSPSSLSASVRDRVTINCRASQSIRSYLNWYQQKPGKAPKLLIYAASSLQGGVPSRFSGSGSGTDFTLTISSLQPEDFATYYCQQSYSTPRTFGQGTKVEIK | – | – | – | – | – | – | – | 0.1 | 0.33 | 0.82 | no binding | – | – | –
3 | Antibody 5 (antibody, V domains shown, also called Protein S Antibody with Human Fc; Combination 8) VH: QVQLVQSGAEVKKPGASVKVSCKASGYTFTSYDINWVRQATGQGLEWMGWVNPNSDNIGYAQKFQGRVTMTRNTSISTAYMELSSLRSEDSAVYYCVRGAAAAWDAFAIWGQGTMVTVSS VL: EIVMTQSPATLSVSPGERATLSCRASQSVGSNLAWYQQKPGQAPRLLIYGASTRATGGPARFSGSGSGTEFTLTISSLQSEDFAVYYCQQYNNWPLTFGGGTKVEIK | 7.8 | 0.000493 | 63300 | 4.19 | 0.000283 | 67500 | – | – | – | – | – | 28 | 0.00227 | 81200
4 | Antibody 22 (antibody, V domains shown, Human variable region with a rat Fc domain; also called Protein S Antibody with Rat Fc; parental rat antibody of Antibody 10) VH: EVQLLESGGGLVQPGGSLRLSCAASRFSFSSYAMSWVRQAPGKGLEWVSAISDSGSNTYYADSVKGLFTISRDNSKNTLYLQMNSLRAEDTAVYYCAKNYESGGYYTFFDYWGQGTLVTVST VL: EIVMTQSPATLSVFPGERATLSCRASQSVRSNLAWHQQKLGQAPRLLLYGASTRATGIPARFSGSGSGTEFTLAISSLQSEDFAVYYCQQYNSWPFTFGGGTKVGIK | – | – | – | – | – | – | – | 0.06 | 0.07 | 0.2 | no binding | – | – | –
5 | Antibody 10 (antibody, human IgG4, V domains shown, also called Protein S Antibody with Human Fc; Combination 9) VH: EVQLLESGGGLVQPGGSLRLSCAASRFSFSSYAMSWVRQAPGKGLEWVSAISDSGSNTYYADSVKGLFTISRDNSKNTLYLQMNSLRAEDTAVYYCAKNYESGGYYTFFDYWGQGTLVTVST VL: EIVMTQSPATLSVFPGERATLSCRASQSVRSNLAWHQQKLGQAPRLLLYGASTRATGIPARFSGSGSGTEFTLAISSLQSEDFAVYYCQQYNSWPFTFGGGTKVGIK | 16.8 | 0.00213 | 127000 | 12.3 | 0.00132 | 107000 | no binding (tested: 100 µg/ml C4BP (C4BP-Protein S complex)) | – | – | – | – | 31 | 0.00514 | 167000
6 | Antibody 17 (antibody, V domains shown, Human variable region with a rat Fc domain; also called Protein S Antibody with Rat Fc; parental rat antibody of Antibody 5) VH: QVQLVQSGAEVKKPGASVKVSCKASGYTFTSYDINWVRQATGQGLEWMGWVNPNSDNIGYAQKFQGRVTMTRNTSISTAYMELSSLRSEDSAVYYCVRGAAAAWDAFAIWGQGTMVTVSS VL: EIVMTQSPATLSVSPGERATLSCRASQSVGSNLAWYQQKPGQAPRLLIYGASTRATGGPARFSGSGSGTEFTLTISSLQSEDFAVYYCQQYNNWPLTFGGGTKVEIK | – | – | – | – | – | – | – | 0.07 | 0.39 | 0.54 | no binding | – | – | –
